According to paper PMC12455585:

Legend:
Assay in all cases: fluorescence anisotropy
Settings in all cases: 50 mM HEPES-NaOH pH 7.2, 50 mM NaCl (50-250 mM in salt series), 20 or 50 nM DNA, 60 min, 25 C
[1] = test system: OBMg R175A (Moorella glycerini)
[2] = test system: OBMg (ComEC OB fold) WT (Moorella glycerini)
[3] = test system: OBMg R112A (Moorella glycerini)
[4] = test system: OBMg R150A (Moorella glycerini)
[5] = test system: OBMg K192A (Moorella glycerini)
[6] = test system: OBMg R188A (Moorella glycerini)
[7] = test system: OBMg R122A (Moorella glycerini)
[8] = test system: OBMg R115A (Moorella glycerini)

Sequence	binding signal (fold Kd increase vs WT) [1]	Kd [2]	binding signal (fold Kd increase vs WT) [3]	binding signal (fold Kd increase vs WT) [4]	binding signal (fold Kd increase vs WT) [5]	binding signal (fold Kd increase vs WT) [6]	binding signal (fold Kd increase vs WT) [7]	binding signal (fold Kd increase vs WT) [8]
GTTCGCAACGAA (double strand) [12 bp dsDNA]	> 2	0.33 µM	> 2	> 2	> 2	> 2	> 2	> 2
GTTCGCAACGAA [12-mer ssDNA]	–	0.79 µM	–	–	–	–	–	–
